Molecular target: CCR4 (human) (UniProt P51679)
Assay: cell-based or functional assay

UniProt P51679, sequence (P51679 whole entry): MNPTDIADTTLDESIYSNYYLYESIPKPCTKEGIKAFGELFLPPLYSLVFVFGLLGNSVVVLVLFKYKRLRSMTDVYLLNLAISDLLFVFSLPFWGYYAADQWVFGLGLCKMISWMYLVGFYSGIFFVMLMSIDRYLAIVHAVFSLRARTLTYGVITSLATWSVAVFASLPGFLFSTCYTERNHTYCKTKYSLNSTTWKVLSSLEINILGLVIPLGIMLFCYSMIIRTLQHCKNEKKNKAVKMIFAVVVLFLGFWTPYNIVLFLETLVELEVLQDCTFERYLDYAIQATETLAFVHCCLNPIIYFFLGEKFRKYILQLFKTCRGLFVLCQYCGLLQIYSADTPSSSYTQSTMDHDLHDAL

**Q.** mogamulizumab (antibody) was tested. Which EC50 (pM), cytotoxicity of the negative control antibody against MT-2 cells expressing CCR4 with T-LAK effector cells (calcein release) did it give?
**A.** 1140 pM

**Q.** And the Emax (%), cytotoxicity of the negative control antibody against MT-2 cells expressing CCR4 with T-LAK effector cells (calcein release)?
**A.** 8.5%
